Source: CN113840601A (dated 2021)

Experiments:
[1] = molecular target: T1, 小鼠c-Met (mouse c-Met) (mouse, UniProt P16056 25-1379, limits assumed); test: not described; stated in the results of the xenograft example as the reason why tolerability could not be assessed
T1 construct: Endogenous mouse protein in the host animals; no construct described

[2] = molecular target: T2, 小鼠EGFR (mouse EGFR) (mouse, UniProt Q01279 25-1210, limits assumed); test: as above
T2 construct: Endogenous mouse protein in the host animals; no construct described

T1 sequence (P16056 25-1379 limits assumed): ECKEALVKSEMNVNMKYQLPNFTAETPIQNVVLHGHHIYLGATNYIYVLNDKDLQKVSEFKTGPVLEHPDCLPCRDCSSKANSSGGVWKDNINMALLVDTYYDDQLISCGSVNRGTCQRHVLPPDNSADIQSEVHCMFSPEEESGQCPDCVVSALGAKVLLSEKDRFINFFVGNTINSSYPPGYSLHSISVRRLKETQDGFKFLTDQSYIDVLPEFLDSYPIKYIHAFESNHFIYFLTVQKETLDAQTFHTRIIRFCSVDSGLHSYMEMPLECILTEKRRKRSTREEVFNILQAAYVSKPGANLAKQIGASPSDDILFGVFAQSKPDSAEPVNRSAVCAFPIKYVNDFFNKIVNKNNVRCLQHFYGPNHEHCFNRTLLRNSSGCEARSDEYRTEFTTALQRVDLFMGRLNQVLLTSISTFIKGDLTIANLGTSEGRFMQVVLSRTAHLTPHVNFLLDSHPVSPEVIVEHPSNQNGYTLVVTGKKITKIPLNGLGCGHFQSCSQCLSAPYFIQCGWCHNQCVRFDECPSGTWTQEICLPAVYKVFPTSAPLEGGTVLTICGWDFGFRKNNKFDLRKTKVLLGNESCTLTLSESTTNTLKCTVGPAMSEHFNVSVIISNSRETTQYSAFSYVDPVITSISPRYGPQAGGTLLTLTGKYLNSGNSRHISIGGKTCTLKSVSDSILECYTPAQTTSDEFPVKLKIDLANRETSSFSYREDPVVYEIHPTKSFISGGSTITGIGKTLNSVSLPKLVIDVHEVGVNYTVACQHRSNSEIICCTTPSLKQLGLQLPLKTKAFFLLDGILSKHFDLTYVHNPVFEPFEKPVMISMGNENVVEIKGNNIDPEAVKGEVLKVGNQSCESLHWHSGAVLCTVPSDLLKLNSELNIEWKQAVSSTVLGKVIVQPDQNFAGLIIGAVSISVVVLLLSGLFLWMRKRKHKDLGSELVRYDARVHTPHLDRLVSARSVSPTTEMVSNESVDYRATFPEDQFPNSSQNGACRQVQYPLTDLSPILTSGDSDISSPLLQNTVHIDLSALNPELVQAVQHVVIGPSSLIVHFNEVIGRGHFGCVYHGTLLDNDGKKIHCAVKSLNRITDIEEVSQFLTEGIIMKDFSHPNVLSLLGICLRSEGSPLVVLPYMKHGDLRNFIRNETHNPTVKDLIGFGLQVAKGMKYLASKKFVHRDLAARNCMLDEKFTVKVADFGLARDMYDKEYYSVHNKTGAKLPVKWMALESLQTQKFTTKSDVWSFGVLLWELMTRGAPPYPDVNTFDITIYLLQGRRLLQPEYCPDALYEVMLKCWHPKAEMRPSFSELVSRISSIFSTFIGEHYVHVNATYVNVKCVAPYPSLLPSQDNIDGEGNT

B1: JNJ-61186372 (bispecific antibody, human IgG1, kappa)
heavy 1: not shown
light 1: not shown
heavy 2: not shown
light 2: DIQMTQSPSSVSASVGDRVTITCRASQGISNWLAWFQHKPGKAPKLLIYAASSLLSGVPSRFSGSGSGTDFTLTISSLQPEDFATYYCQQANSFPITFGQGTRLEIKRTVAAPSVFIFPPSDEQLKSGTASVVCLLNNFYPREAKVQWKVDNALQSGNSQESVTEQDSKDSTYSLSSTLTLSKADYEKHKVYACEVTHQGLSSPVTKSFNRGEC
notes: also called CNTO4424
binding result [1]: no binding | binding result [2]: no binding
